This series concerns the molecule itself. As to the kind of experiment: SDS gel and Western blot, self-association (dimer band).

B1: secreted form of the factor with tags (94 AA+tags) expressed in E. coli (other)
chain: MEPLAVVDLRPQSSVKVEVHFQDKVEEMSIRLDQTVAELKKHLKTVVQLSTSNMLLFYLDQEAPFGPEEMKYSSRALHSYGIRDGDKIYVEPRMKDDDDKKGEFEAYVEQKLISEEDLNSAVDHHHHHH
notes: Expressed from pTrcHis2-TOPO in E. coli, purified on nickel columns; carries no lipid cofactor; runs at 16 kD with a 32 kD dimer band; also called free factor made in E. coli; E. coli expressed secreted form of the factor
B1: the binding result is listed as “binds”.
